Target: HSP90β (purified recombinant) (UniProt P08238 1-724)
Test: ITC

HSP90β (purified recombinant), sequence (P08238 whole entry): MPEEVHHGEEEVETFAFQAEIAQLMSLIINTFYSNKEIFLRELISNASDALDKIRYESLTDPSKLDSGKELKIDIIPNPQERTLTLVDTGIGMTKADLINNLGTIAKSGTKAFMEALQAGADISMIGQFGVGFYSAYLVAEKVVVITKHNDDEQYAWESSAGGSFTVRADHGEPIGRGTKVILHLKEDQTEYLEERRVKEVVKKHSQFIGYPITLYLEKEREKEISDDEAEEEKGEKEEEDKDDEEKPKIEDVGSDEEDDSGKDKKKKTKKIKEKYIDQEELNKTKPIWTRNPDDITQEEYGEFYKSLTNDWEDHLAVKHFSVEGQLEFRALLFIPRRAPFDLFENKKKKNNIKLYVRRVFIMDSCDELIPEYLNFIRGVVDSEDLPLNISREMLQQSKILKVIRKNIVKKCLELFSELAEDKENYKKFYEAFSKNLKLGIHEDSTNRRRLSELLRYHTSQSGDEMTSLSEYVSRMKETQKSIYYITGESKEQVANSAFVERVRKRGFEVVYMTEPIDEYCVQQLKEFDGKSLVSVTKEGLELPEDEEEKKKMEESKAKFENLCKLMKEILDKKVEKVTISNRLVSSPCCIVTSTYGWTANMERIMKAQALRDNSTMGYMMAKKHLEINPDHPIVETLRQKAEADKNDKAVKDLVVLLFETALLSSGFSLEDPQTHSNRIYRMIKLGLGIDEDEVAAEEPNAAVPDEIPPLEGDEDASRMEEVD

Row | Binder | Kd [µM]
1 | FLAG-tagged wildtype CDC37 (purified recombinant) (natural protein) MVDYSVWDHIEVSDDEDETHPNIDTASLFRWRHQARVERMEQFQKEKEELDRGCRECKRKVAECQRKLKELEVAEGGKAELERLQAEAQQLRKEERSWEQKLEEMRKKEKSMPWNVDTLSKDGFSKSMVNTKPEKTEEDSEEVREQKHKTFVEKYEKQIKHFGMLRRWDDSQKYLSDNVHLVCEETANYLVIWCIDLEVEEKCALMEQVAHQTIVMQFILELAKSLKVDPRACFRQFFTKIKTADRQYMEGFNDELEAFKERVRGRAKLRIEKAMKEYEEEERKKRLGPGGLDPVEVYESLPEELQKCFDVKDVQMLQDAISKMDPTDAKYHMQRCIDSGLWVPNSKASEAKEGEEAGPGDPLLEAVPKTGDEKDVSV | 2.26
2 | FLAG-tagged CDC37 M164A (purified recombinant) (natural protein) MVDYSVWDHIEVSDDEDETHPNIDTASLFRWRHQARVERMEQFQKEKEELDRGCRECKRKVAECQRKLKELEVAEGGKAELERLQAEAQQLRKEERSWEQKLEEMRKKEKSMPWNVDTLSKDGFSKSMVNTKPEKTEEDSEEVREQKHKTFVEKYEKQIKHFGALRRWDDSQKYLSDNVHLVCEETANYLVIWCIDLEVEEKCALMEQVAHQTIVMQFILELAKSLKVDPRACFRQFFTKIKTADRQYMEGFNDELEAFKERVRGRAKLRIEKAMKEYEEEERKKRLGPGGLDPVEVYESLPEELQKCFDVKDVQMLQDAISKMDPTDAKYHMQRCIDSGLWVPNSKASEAKEGEEAGPGDPLLEAVPKTGDEKDVSV | 7.19
